B1: CY5-MER11C: synthesized MM retrotransposon MER11C, labelled with CY5 (nucleic acid, listed as Homo sapiens)
DNA: TATCGAAAATTCACCCCCGATATTCACGTAGGTTCTTTTCTATTTTCCCTAAGCGTCGGCAGGTTTGAGAAATAAAGGGACAGAGTACAAAAGAGAGAAATTTTAAAGCTGGGCGTCCGGGGGAGACATCACATGTTGGTAGGTTCCATGATGCCCCACAAGCCGTAAAAACCAGCAAGTTTTTATTAGTGATTTTCAAAAGGGGAGGGAGTGTACGAATAGGTGTGGGTCACAGAGATCACGTGCTTCACAAGGTAATAGAATATCACAAGGCAAATGGAGGCAGGGCGAGATCACAGGACCACAGGACCGGGGTGAAATTAAAATTGCTAATGAAGTTTTGGGCACCATTGTCATTGATAACATCTTATCAGGAGACAGGGTTTGAGAGACAACCGGTCTGACCAAAATTTATTAGGTGGGAATTTCCTCGTCCTAATAAGCCTGGGAGTGCTATGGGAGACTGGGGCTTATTTCATCCCGTAGAGGCAACCATAAAAGACAGGCCCAAGCGGCCATTTAGAGCCTCCCAGGACATTCTCTTTCTCAGGGTGTTCCTTGCTGAGAAAAAGAATTCAGATATTTCTCCATTTGCTTTTGAAAGAAGAGAAATATGGCTCTGTTCCCGGCTCACGGCGCAGATTTAAGGTTATCTCCTTTTCCCTGAACAATTGCTGTTATCCTGTTCTTTTTTCAAGGTGCCCAGATTTCATATTGTTCAAACACACATGCTTACAATTTGTGCAGTTAAGCAATATCACAGGGTCCTGAGGGACATACATCCTCCTCAGCTGACAGGATTAAGAGATTAAAGTAAAGACAGGCATAGGAAATCACAAGGGTATTGATTGGGGAAGTGATAAGTGTCCATGAAATCTTCACAATTTATGTTTAGAGATTGCAGTAAAGACAGGCATAAGAAATTATAAAAGTATTAATTTGGGGAACTAATAAATGTCCATGAAATCTTCACAATCCACGTTCTTCTGCCATGGCTTCAGCCGGTCCCTCCGTTCGGGGTCCCTGACTTCCCGCAACA
modifications: CY5 label
B2: MM2 (88-168): fluorescently labelled fragment of MM2 (nucleic acid, listed as Homo sapiens)
DNA: CCAGGATGGAGTGCAAGGGATCTTGGCTCACCACAGCCTCCGCCTCTTGGGTTCAAGTGATTCTTCTGCCTCAGCCTCCC
modifications: DNA, all phosphodiester, methylation of C not given here; fluorescein label via fluorescein-12-dCTP or 5' FAM primer

Key:
MM1s and U266 cells = assay: Cell capture of several transposons in two MM cell lines at 4 hours, flow cytometry; type: cell-based, human; settings: 4 hours of culture
Experimental: The variability of cell capture of several transposons was tested in two MM cell lines at 4 hours of culture.

[1] = tested on: MM1s (multiple myeloma) cell genome; assay: ctDNA coculture with MM1s cells, whole genome sequencing: genomic insertion sites, transposons at insertion points and SNVs (multiple myeloma); type: cell-based, human; settings: TABLE 7, multiple myeloma co-culture
[2] = tested on: plasma cells (CD138+) and non-plasma cells (CD138−) of bone marrow; assay: Cell targeting in bone marrow samples from patients with and without multiple myeloma, flow cytometry; type: cell-based, human
Experimental: FIG. 10 provides illustrative flow cytometry scatterplots displaying the cell capture of AluSp, MER11, and control transposon sequence in plasma cells (CD138+) and non-plasma cells (CD138−) derived from bone marrow of multiple myeloma patients.
Data for plasma cells (CD138+) and non-plasma cells (CD138−) are separately shown.
Cell targeting of the AluSp and MER11C sequences was tested in bone marrow samples derived from patients with and without multiple myeloma.

[3] = tested on: MM cell lines MM1S, JK6L, and RPMI; assay: Uptake of additional MM2 fragments, fluorescent microscopy; type: cell-based; settings: Fluorescein 12 dCTP or 5′FAM labelling
Experimental: FIG. 21 provides microcopy images showing uptake of 5′ fluorescently labelled synthetic DNA fragments derived from a multiple myeloma ctDNA by MM cells (JK6L) or non-MM cells.
Additional fragments were generated to analyze further the sequence to identify a region that contributes to uptake by MM cells (e.g., a recognition sequence). The following sequences were generated with Fluorescein 12 dCTP or 5′FAM labelling:
The fluorescent DNA sequences were incubated with multiple cell lines (e.g., MM cell lines MM1S, JK6L, and RPMI, and non-MM cell lines HT1080, HCT116, and DU145) and uptake was evaluated by fluorescent microscopy. […] Specificity of uptake by MM cells was preserved as shown by a lack of uptake by HT1080 and HCT116 cells (FIG. 21).

Molecule	cell capture (MM1s and U266 cells)	blast orientation ([1]; BLAST alignment orientation)	blast chr ([1]; chromosome with the longest result for BLAST analysis of the full contig)	Distance from insertion ([1]; distance between insertion and the transposon (0 if they overlap))	Location relative to insertion ([1]; location of the transposon relative to the insertion on the contig)	signal in plasma cells of MM patients vs non-MM CD138 (−) cells compartment ([2]; 14 hours)	CY5 positive plasma cells ([2]; 14 hours of culture, vs control sequence or PC specific sequence)	uptake by MM cells [3]
B1	higher than that of the other transposons, the control sequence, and PC transposons	Plus/Plus	chr14	0	intersect	higher levels of signal	more CY5 positive plasma cells	
B2								sufficient for uptake
